Assay results as given in the supplement of paper PMC12667976.

B1: library; numbered along this chain (parent)
chain: MATDAALRRLLRLHRTEIAVAVDSAFPLLHALADHDVVPEDKFQETLHLKEKEGCPQAFHALLSWLLTQDSTAILDFWRVLFKDYNLERYGRLQPILDSFPKDVDLSQPRKGRKPPAVPKALVPPPRLPTKRKASEEARAAAPAALTPRGTASPGSQLKAKPPKKPESSAEQQRLPLGNGIQTMSASVQRAVAMSSGDVPGARGAVEGILIQQVFESGGSKKCIQVGGEFYTPSKFEDSGSGKNKARSSSGPKPLVRAKGAQGAAPGGGEARLGQQGSVPAPLALPSDPQLHQKNEDECAVCRDGGELICCDGCPRAFHLACLSPPLREIPSGTWRCSSCLQATVQEVQPRAEEPRPQEPPVETPLPPGLRSAGEEVRGPPGEPLAGMDTTLVYKHLPAPPSAAPLPGLDSSALHPLLCVGPEGQQNLAPGARCGVCGDGTDVLRCTHCAAAFHWRCHFPAGTSRPGTGLRCRSCSGDVTPAPVEGVLAPSPARLAPGPAKDDTASHEPALHRDDLESLLSEHTFDGILQWAIQSMARPAAPFPS

Variants of: B1
Experiment: AIRE transcriptional activation functional score (insulin promoter-GFP; nonsense median 0, synonymous median 1) (normalised score); higher = higher AIRE activity (more reporter activation)
Details: with insulin promoter-GFP reporter in HEK293
Method: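 Deep mutational scan of full-length human AIRE (codon-optimized cDNA, DT-POPCode NNN libraries over three regions) integrated at a Bxb1 landing pad in HEK293 cells carrying an insulin core promoter-GFP reporter at a Flp-In site. Cells were sorted for the top 10% GFP about 14 days after transfection. Variant frequency log-ratios (select vs non-select, TileSeq) were rescaled so that the nonsense median is 0 and the synonymous median is 1, then averaged over biological replicates.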

AIRE transcriptional activation functional score, by site and new letter:
S241: I 1.06 | V 0.868 | Q 0.992 | F 1.2 | Y 1.12 | A 0.598 | W 0.868 | C 1.11 | E 1.29 | R 0.436 | H 0.567 | T 1.11 | G 0.897 | M 1.1 | P 1.31 | L 1.17 | D 1.13 | K 0.301 | N 1.13
F236: N 1.68 | L 0.651 | P 0.266 | G 0.726 | C 0.925 | I 1.01 | A 1.03 | S 0.712 | V 0.877 | T -0.222 | M -0.434 | Y 0.564 | W 1.44 | R 0.401 | K 0.0925
S239: C 1.16 | W 1.37 | P 1.06 | M 1.69 | E 0.783 | A 1.2 | R 1.13 | D 0.131 | G 1.05 | Y 1.43 | L 1.31 | K -0.0573 | N 1.4 | F 1.06 | T 1.17 | V 1.13 | H 1.27 | I 0.737
K245: L 0.453 | E 0.245 | P 1.07 | A 1.33 | D 0.145 | Q 0.887 | S 0.252 | V 1.32 | I 0.196 | H 1.35 | T -0.0733 | Y 1.21 | M 0.0585 | W 0.978 | C 1 | F 1.67 | N 0.375 | G 0.76 | R 0.472
T232: Y 0.775 | K 1.16 | P 0.894 | L 1.1 | E 1.05 | H 0.729 | M 1.22 | V 1.07 | N 0.834 | Q 1.38 | F -0.0868 | S 1.15 | I 0.928 | R 1.18 | G 0.941 | W 0.451
S249: E -0.0377 | L 0.67 | H 0.402 | I 1.25 | T 0.256 | G 1.22 | A 1.07 | Y 0.973 | V 1.12 | R -0.21 | W 1.81 | D 0.114 | N 0.548 | P 0.451 | F 0.707 | C 1.33 | Q 0.961 | M 1.28
G242: S 0.694 | V 1.04 | P 0.412 | D 0.951 | T -0.775 | I -0.56 | R 0.611 | W 0.936 | Y 1.6 | K 0.747 | A 1.19 | C 1.06 | L 1.13 | E 0.0818 | Q 0.988 | F 1.23
R247: I 0.937 | V 1.16 | G 0.529 | F 0.902 | T 0.898 | Y 0.724 | C 1.05 | L 0.895 | D 0.268 | A 0.732 | S 0.966 | N 0.919 | Q 0.669 | H -1.26 | W 0.502 | P 0.344 | E 1.52 | K 1.2 | M 1.42
S250: V 1.1 | N 0.847 | Q -0.615 | G 0.835 | T 0.687 | K 0.556 | F 1.13 | L 1.02 | E 0.4 | A 0.792 | D 0.427 | M 1.68 | P -0.109 | I 1.11 | R 0.0524 | C 1.23 | H 0.963
S234: E 0.552 | T 0.61 | R 1.21 | G 1.16 | V 1.19 | K 0.869 | A 1.24 | L 1.04 | C 1.53 | I 0.96 | W 0.775 | F 1.31 | D -0.22 | M 1.15 | Y 1.11 | Q 1.22 | P 1.19
P233: K 0.232 | R 1.18 | I 0.184 | T 1.07 | G 1.15 | N 1.51 | Q 0.416 | S 1.01 | Y 0.576 | A 1.09 | L 0.385 | V 0.512 | H 1.29 | D 0.675 | F -0.0788 | C 1.17
E237: R 0.603 | Q 1.03 | F -1.02 | T 0.952 | G 1.06 | L 1.16 | D 0.996 | A 1.08 | H 0.943 | P 0.729 | I 0.885 | K 0.979 | M 1.3 | V 1.19 | Y 0.617 | S 0.791 | W 0.832 | C 1.16
S248: E 0.474 | L 1.11 | T 0.975 | D 1.25 | R 0.215 | F 1.09 | C 1.03 | A 0.947 | G 1.13 | K 0.517 | Y 1.07 | V 0.819 | Q 0.368 | W 1.01 | I 1.16 | M 1.01 | N 0.778 | P 1.33
A246: L 1 | V 1.12 | I 0.408 | S 0.759 | Q -0.0407 | W 1.47 | E 0.55 | P 1.05 | Y 1.43 | T 0.841 | N 0.102 | H 1.42 | F 1.39 | G 0.693 | D 0.858 | R 0.482 | K 0.609 | C 1.22
K243: Q 0.804 | E 0.511 | V 0.856 | G 1.03 | H 1.02 | I 1.02 | R 1.1 | W 1.3 | F 0.81 | L 1.47 | M 1.31 | N 1.06 | P 0.97 | Y -0.257 | D 0.0348 | A 0.56 | C 0.711 | S 1 | T 1.08
K235: W 1.15 | N 0.479 | S 0.877 | R 1.19 | H 0.221 | C 1.5 | M 1.33 | A 0.515 | L 0.897 | P 1.43 | I 0.627 | E 0.408 | F 0.827 | G 1.17 | T 0.985 | Y 1.01 | Q 1.04 | V 1.45
D238: H 1.34 | M 0.876 | P 1.5 | N 0.588 | T 0.755 | Q 0.948 | L 1.13 | K 0.355 | E 0.685 | A 1.15 | G 1 | C 1.24 | F 1.04 | Y 1.12 | I 1.27 | V 1.23 | R 0.333 | S 0.788
G240: I 0.539 | A 0.723 | T 1.47 | Y -0.451 | P 0.78 | V 0.921 | M 1.08 | W 1.09 | L 1.2 | K 1.07 | N 1.96 | R 1.01 | Q 0.0726 | F 0.96 | H 0.0803 | E 0.406 | S 1.1 | C 0.742
N244: L 0.301 | M -0.168 | F 1.08 | C 0.374 | K -0.184 | H 0.405 | T 1.14 | A 0.269 | E 0.249 | D 1.1 | R 0.573 | Q 1.19 | S 1.3 | Y 1.25 | I 1.07 | G 0.138 | V 0.206
